# Paper PMC3568928 (Journal of molecular biology, 2011)
# “And” between values parts separate entries of the source, which are not always exact repeats. Identical values can stand only once.
# T1: htt^NTQ15K2 (Phe→Trp replacement at position 17 (stands in the printed letters))
# T1 peptide: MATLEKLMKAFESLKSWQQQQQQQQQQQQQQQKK
# T2: htt^NTQ25K2 (Phe→Trp replacement at position 17 (stands in the printed letters))
# T2 peptide: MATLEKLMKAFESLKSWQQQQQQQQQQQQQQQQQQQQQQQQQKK
# B1: htt^NTQ10K2 (peptide)
# peptide: MATLEKLMKAFESLKSFQQQQQQQQQQKK
# How the values were obtained:
# [1] = biological target: B1; assay: seeded elongation, HPLC sedimentation assay
# [2] = biological target: T1, htt^NTQ15K2; assay: seeded elongation, HPLC sedimentation assay
# [3] = biological target: T2, htt^NTQ25K2; assay: seeded elongation, HPLC sedimentation assay
# [4] = biological target: the molecule itself; assay: AUC
pseudo-first-order rate constant of seeded elongation [1] [h⁻¹],pseudo-first-order rate constant of seeded elongation [2] [h⁻¹],pseudo-first-order rate constant of seeded elongation [3] [h⁻¹],Binder,stoichiometry N [4]
0.249,0.236,0.316,htt^NTQ37P10K2 (peptide) peptide: MATLEKLMKAFESLKSWQQQQQQQQQQQQQQQQQQQQQQQQQQQQQQQQQQQQQPPPPPPPPPPKK,–
–,–,–,B1,~4 and ~8 and ~12
